This experiment concerns the target MazF (E. coli) (UniProt P0AE70).

Among the data in paper PMC2907309 are recovery of Luc production (end-point) in a cell-free reaction made of MazF crude extract, against the concentration of pure MazE added and recovery of deGFP production (end-point) in a cell-free reaction made of MazF crude extract, against the concentration of pure MazE added values, retold here.

Chain of UniProt P0AE70 (P0AE70 whole entry): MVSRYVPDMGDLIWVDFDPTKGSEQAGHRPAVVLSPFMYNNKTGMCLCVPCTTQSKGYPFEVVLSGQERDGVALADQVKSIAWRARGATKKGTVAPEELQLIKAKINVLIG

“His-MazE (from UniProt P0AE72 1-82) (natural protein)” showed a recovery of Luc production (end-point) in a cell-free reaction made of MazF crude extract, against the concentration of pure MazE added of 0.6 µM and a recovery of deGFP production (end-point) in a cell-free reaction made of MazF crude extract, against the concentration of pure MazE added of 0.4 µM.
